{
  "source": "paper PMC3716654",
  "about": "“The UmuC subunit of the E. coli DNA polymerase V shows a unique interaction with the β-clamp processivity factor” (BMC Structural Biology, 2013)",
  "target": "T1, E. coli β-clamp processivity factor (E. coli, UniProt P0A988 1-366)",
  "T1 construct": "DNA polymerase III β subunit (β sliding clamp, dnaN), E. coli, full length, from plasmid pACYC11-dnaN; residues up to Leu-366 are named; The last residue of the hexa-histidine tag is modelled in both subunits; also called sliding clamp; not shown: His6, N-terminal, kept",
  "T1 sequence (P0A988 whole entry)": "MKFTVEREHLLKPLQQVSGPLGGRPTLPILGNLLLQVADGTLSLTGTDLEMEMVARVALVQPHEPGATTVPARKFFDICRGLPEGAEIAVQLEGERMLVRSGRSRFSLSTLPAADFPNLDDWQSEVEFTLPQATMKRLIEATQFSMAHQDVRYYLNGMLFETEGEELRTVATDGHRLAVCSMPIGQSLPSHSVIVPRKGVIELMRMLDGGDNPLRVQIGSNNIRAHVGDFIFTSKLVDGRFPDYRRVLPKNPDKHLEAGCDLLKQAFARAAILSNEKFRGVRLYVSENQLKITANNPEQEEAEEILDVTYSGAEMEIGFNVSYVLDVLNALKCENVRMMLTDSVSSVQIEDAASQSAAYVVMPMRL",
  "test": "crystal structure; β-clamp/Dylight649-UmuC peptide complex purified by SEC, 15 mg/ml; crystallised in 200 mM calcium acetate, 200 mM MES pH 6.5, 14% PEG 6000, sitting drop, 12°C; 2.5 Å",
  "conditions": "both partners purified",
  "note": "Where no end group is shown, it is not given here. Dylight649 = Dylight649 fluorophore attached through the cysteine",
  "data": [
    {"binder": "C(Dylight649)QGVAQLNLFDD (cysteine added to permit linkage of the chromophore; not a UmuC residue; 12-mer including the added N-terminal cysteine; Only 356-361 (chain D) and 357-361 (chain C) are ordered in the structure; also called Dylight649-Pol V synthetic peptide; UmuC peptide; source: synthetic peptide (Cambridge Peptides))", "note": "[Dylight649-UmuC synthetic peptide (Dylight649-C-QGVAQLNLFDD)]", "values": [
      {"measurement": "binding result", "value": "binds"}
    ]}
  ]
}
